Data set [1] deals with cardiomyocytes from myocardial infarcted rats. The data set is described as follows: Relaxation of cardiomyocytes isolated from myocardial infarcted rats treated with neuregulin by osmotic pump. As to conditions: myocytes from MI rats treated with neuregulin compared with MI rats treated with vehicle. Format: in vivo, rat. On the procedure: Wistar male rats (Shanghai Animal Center of Chinese Academy of Science), which weighed 200±20 g, were anesthetized by intraperitoneally injecting 100 mg/kg (drug/body weight) of ketamine. The neck and chest were depilated and sanitized. An incision Was made in the middle front neck to expose the tracheae. An 18G catheter overneedle was inserted into the tracheae between the 3rd and 5th cartilage of tracheae. After the needle was drawn out, a plastic cannula was pushed into the trachea 1-2 cm and fixed to connect the Rodent Ventilator (SAR-830/P ventilator—Inspiratory flow rate, 1 ml/100 g/breath; Respiratory rate, 60 breaths/min). Another incision was made on the left front chest. The skin was blunt dissected to expose the fourth and fifth rib, then the fourth rib was cut by elbowed mosquito forceps. The ventilator (as described above) was linked to the cannula and turned on, and the heart was exposed to check the status of lung and heart. The pericardium was rived off to identify the left atria and the pulmonary arterious cone after the heart was exteriorized through the incision. The left ventricle anterior descending coronary artery between them was ligated tight with 6/0 medical suture before the heart was replaced into the thorax. The thoracic wall was stitched. The ventilator was blocked to full fill the lung. […]

In data set [2] the test system is patients with stable chronic heart failure. The data set is described as follows: Haemodynamics in patients with stable chronic heart failure after continuous intravenous infusion of neuregulin. Format: in vivo, human. As to conditions: 0.2 μg/kg/hour i.v. infusion for 6 hours. On the procedure: 6 patients with stable chronic heart failure were treated with continuous intravenous infusion of neuregulin at 0.2 μg/kg/hour (drug weight/body weight/hour) for 6 hours. A baseline right heart catheterisation was performed and Swan Ganz catheter left in situ to monitor haemodynamics for 24 hours.

B1: NRG: NRG having the sequence of SEQ ID NO:1, which corresponds to amino acids 177-237 of human NRG-1 (protein, listed as Homo sapiens)
chain: SHLVKCAEKEKTFCVNGGECFMVKDLSNPSRYLCKCPNEFTGDRCQNYVMASFYKAEELYQ
For B1, in data set [1], the “relaxation of myocytes (time to relax to half of the maximum length, FIG. 1)” value is “relax much faster”. The “increase of average cardiac output” value in data set [2] (2 hours after infusion vs baseline 3.7±1.0 L/min) is listed as 29.7%. Moreover, the “systemic vascular resistance (SVR)” value in data set [2] (after infusion (baseline 1679.3±336.3)) stood at 1199.5±127.6 dynes-sec-cm^−5. Further, in data set [2] (at 2 hours after infusion (baseline 3.7±1.0)), the average cardiac output turned out to be 4.8 ± 0.8 L/min. The “fall of systemic vascular resistance (SVR)” value in data set [2] (vs baseline 1679.3±336.3) is 29%.

The values above are taken from patent publication US20200031892A1, “COMPOSITION COMPRISING NEUREGULIN FOR ORGAN PERFUSION, PRESERVATION OR REPERFUSION, AND USE THEREOF” (Zensun (Shanghai) Science & Technology, Co., Ltd., priority 2007, published 2020).
